Test results from patent publication US11427812B2, “Antimicrobial agents against Staphylococcus aureus” (LYSANDO AG, priority 2016, dated 2022).

B1: SEQ ID NO: 105: fusion protein: CHAP domain of LysK, M23 endopeptidase domain of lysostaphin, CBD of ALE-1 and a further peptide (cathepsin G (77-83) or KNK) (protein)
chain: MAKTQAEINKRLDAYAKGTVDSPYRVKKATSYDPSFGVMEAGAIDADGYYHAQCQDLITDYVLWLTDNKVRTWGNAKDQIKQSYGTGFKIHENKPSTVPKKGWIAVFTSGSYEQWGHIGIVYDGGNTSTFTILEQNWNGYANKKPTKRVDNYYGLTHFIEIPVKAGTTVKKETAKKSATSHEHSAQWLNNYKKGYGYGPYPLGINGGMHYGVDFFMNIGTPVKAISSGKIVEAGWSNYGGGNQIGLIENDGVHRQWYMHLSKYNVKVGDYVKAGQIIGWSGSTGYSTAPHLHFQRMVNSFSNSTAQDPMPFLKSAGYGKAGGTVTPTPNPGNGYKTNKYGTLYKSESASFTANTDIITRLTGPFRSMPQSGVLRKGLTIKYDEVMKQDGHVWVGYNTNSGKRVYLPVRTWNESTGELGPLWGTIKHHHHHHLKHPQYNQR
modifications: Fusion protein comprising CHAP domain of LysK endolysin, M23 endopeptidase domain of lysostaphin, cell wall binding domain of ALE-1, His6-tag and synthetic peptide HPQYNQR
B2: Clone 11: variant of SEQ ID NO: 107 with mutations K17E, H51Q (protein)
chain: MAKTQAEINKRLDAYAEGTVDSPYRVKKATSYDPSFGVMEAGAIDADGYYQAQCQDLITDYVLWLTDNKVRTWGNAKDQIKQSYGTGFKIHENKPSTVPKKGWIAVFTSGSYEQWGHIGIVYDGGNTSTFTILEQNWNGYANKKPTKRVDNYYGLTHFIEIPVKAGTTVKKETAKKSATSHEHSAQWLNNYKKGYGYGPYPLGINGGMHYGVDFFMNIGTPVKAISSGKIVEAGWSNYGGGNQIGLIENDGVHRQWYMHLSKYNVKVGDYVKAGQIIGWSGSTGYSTAPHLHFQRMVNSFSNSTAQDPMPFLKSAGYGKAGGTVTPTPNPGNGYKTNKYGTLYKSESASFTANTDIITRLTGPFRSMPQSGVLRKGLTIKYDEVMKQDGHVWVGYNTNSGKRVYLPVRTWNESTGELGPLWGTIKGSHHHHHHGGSKNK
modifications: Fusion protein comprising CHAP domain of LysK endolysin, M23 endopeptidase domain of lysostaphin, cell wall binding domain of ALE-1, His6-tag and synthetic peptide KNK
B3: Clone 15: variant of SEQ ID NO: 107 with mutations K17E, H51Q, K28N, T86A, G154S (protein)
chain: MAKTQAEINKRLDAYAEGTVDSPYRVKNATSYDPSFGVMEAGAIDADGYYQAQCQDLITDYVLWLTDNKVRTWGNAKDQIKQSYGAGFKIHENKPSTVPKKGWIAVFTSGSYEQWGHIGIVYDGGNTSTFTILEQNWNGYANKKPTKRVDNYYSLTHFIEIPVKAGTTVKKETAKKSATSHEHSAQWLNNYKKGYGYGPYPLGINGGMHYGVDFFMNIGTPVKAISSGKIVEAGWSNYGGGNQIGLIENDGVHRQWYMHLSKYNVKVGDYVKAGQIIGWSGSTGYSTAPHLHFQRMVNSFSNSTAQDPMPFLKSAGYGKAGGTVTPTPNPGNGYKTNKYGTLYKSESASFTANTDIITRLTGPFRSMPQSGVLRKGLTIKYDEVMKQDGHVWVGYNTNSGKRVYLPVRTWNESTGELGPLWGTIKGSHHHHHHGGSKNK
modifications: Fusion protein comprising CHAP domain of LysK endolysin, M23 endopeptidase domain of lysostaphin, cell wall binding domain of ALE-1, His6-tag and synthetic peptide KNK
B4: SEQ ID NO: 107: fusion protein: CHAP domain of LysK, M23 endopeptidase domain of lysostaphin, CBD of ALE-1 and a further peptide (cathepsin G (77-83) or KNK) (protein)
chain: MAKTQAEINKRLDAYAKGTVDSPYRVKKATSYDPSFGVMEAGAIDADGYYHAQCQDLITDYVLWLTDNKVRTWGNAKDQIKQSYGTGFKIHENKPSTVPKKGWIAVFTSGSYEQWGHIGIVYDGGNTSTFTILEQNWNGYANKKPTKRVDNYYGLTHFIEIPVKAGTTVKKETAKKSATSHEHSAQWLNNYKKGYGYGPYPLGINGGMHYGVDFFMNIGTPVKAISSGKIVEAGWSNYGGGNQIGLIENDGVHRQWYMHLSKYNVKVGDYVKAGQIIGWSGSTGYSTAPHLHFQRMVNSFSNSTAQDPMPFLKSAGYGKAGGTVTPTPNPGNGYKTNKYGTLYKSESASFTANTDIITRLTGPFRSMPQSGVLRKGLTIKYDEVMKQDGHVWVGYNTNSGKRVYLPVRTWNESTGELGPLWGTIKGSHHHHHHGGSKNK
modifications: Fusion protein comprising CHAP domain of LysK endolysin, M23 endopeptidase domain of lysostaphin, cell wall binding domain of ALE-1, His6-tag and synthetic peptide KNK

Experiments:
S. aureus Sp10 = test: MIC assay over several culture cycles (resistance development); assay type: cell-based, Staphylococcus aureus
From the text: Becker et al. (Sci Rep. 2016 Apr. 28; 6:25063) reported construction of fusion protein L-K with reduced incidence of resistant S. aureus strain development. In an attempt to provide other improved fusion proteins against S. aureus, the inventors generated two fusion proteins, each comprising the CHAP domain of LysK endolysin, the M23 endopeptidase domain of lysostaphin; and the cell wall binding domain (CBD) of ALE-1. In addition, one of the fusion proteins did comprise the cathepsin G (77-83) peptide (SEQ ID NO:94), the other the cationic peptide KNK (SEQ ID NO:38). The resulting fusion proteins (SEQ ID NO:105 and SEQ ID NO: 107) were assayed for antibacterial activity and resistance development. For this purpose MIC (minimal inhibitory concentration) assays (see below) were carried out for several culture cycles.
MIC assay S. aureus Sp10 was grown in (Luria-Bertani) medium and diluted 1:10 in Mueller-Hinton medium. At an optical density OD600 of about 0.6, bacteria were diluted in the same medium 1:10 followed by a 1:500 dilution. Protein buffer (20 mM HEPES, 500 mM NaCl, pH 7.4) and proteins or gentamycin were pipetted into a 96 well plate, using different concentrations of proteins/gentamycin and an end volume of 20 μl. The proteins used were the fusion proteins according to SEQ ID NO:105 and SEQ ID NO: 107. 180 μl of bacterial cells or a medium (Mueller-Hinton) control were given to the 96 well plate and mixed. The plate was incubated for 18-22 hours at 37° C. and the bacterial growth was determined measuring the OD600 values of the wells. The well with the lowest concentration of protein/gentamycin showing the same OD600 value as the medium control was taken as MIC. For the next cycle, the bacterial solution from the sub-MIC well was used. The sub-MIC well is the well in which the next lower concentration to the MIC concentration was tested, i.e. the well with the highest concentration of protein/gentamycin but still OD600 above the medium control. For further cycles of the resistance assay, the bacteria from this sub-MIC well of the previous cycle were taken for the next over-night culture.

[1] = tested on: Staphylococcus aureus DSM 346; test: Thermal stability assay (standard MIC assay after heat incubation); assay type: cell-based; conditions: for MIC: protein 0.3 mg/ml, DSM 346; for thermal stability: in comparison to the unmodified fusion protein
Description: In addition, thermal stability was assessed for two of said mutants in comparison to the unmodified fusion protein. The thermal stability assay was carried out with the strain Staphylococcus aureus DSM 346. The proteins were diluted to a concentration of 0.3 mg/ml followed by an incubation for 20 minutes at different temperatures (see table 8 below). A standard MIC assay was carried out after this incubation time.

[2] = cycle 1 (initial MIC), S. aureus Sp10
[3] = cycle 1, fold change over initial MIC (cycle 1)
[4] = cycle 6, fold change over initial MIC (cycle 1)
[5] = cycle 12, fold change over initial MIC (cycle 1)
[6] = after 20 minutes incubation at 44.6° C.
[7] = after 20 minutes incubation at 47.1° C.
[8] = after 20 minutes incubation at 49.7° C.
[9] = after 20 minutes incubation at 52.3° C.
[10] = after 20 minutes incubation at 54.9° C.
[11] = after 20 minutes incubation at 57.4° C.
[12] = after 20 minutes incubation at 60° C.
[13] = after 20 minutes incubation at RT

Row | Molecule | Minimal inhibitory concentration (MIC) (S. aureus Sp10; [2]) [µg/mL] | Fold change of MIC (S. aureus Sp10; [3]) | Minimal inhibitory concentration (MIC) (S. aureus Sp10; cycle 6, S. aureus Sp10) [µg/mL] | Fold change of MIC (S. aureus Sp10; [4]) | Minimal inhibitory concentration (MIC) (S. aureus Sp10; cycle 12, S. aureus Sp10) [µg/mL] | Fold change of MIC (S. aureus Sp10; [5]) | MIC [1, 6] [µg/mL] | MIC [1, 7] [µg/mL] | MIC [1, 8] [µg/mL] | MIC [1, 9] [µg/mL] | MIC [1, 10] [µg/mL] | MIC [1, 11] [µg/mL] | MIC [1, 12] [µg/mL] | MIC [1, 13] [µg/mL] | thermal stability [1]
1 | gentamycin [reference compound] | 0.8 | 1 | 4 | 5 | 6 | 7.5 |  |  |  |  |  |  |  |  | 
2 | B1 | 4 | 1 | 4 | 1 | 6 | 1.5 |  |  |  |  |  |  |  |  | 
3 | B2 |  |  |  |  |  |  | 6 | 10 | 10 | 16 | >30 | >30 | >30 | 4 | increased thermal stability
4 | B3 |  |  |  |  |  |  | 4 | 4 | 4 | 4 | 4 | 6 | 8 | 4 | increased thermal stability
5 | B4 | 4 | 1 | 4 | 1 | 6 | 1.5 | 20 | 25 | 30 | 30 | >30 | >30 | >30 | 6 | 
